The term Kd denotes the concentration at which binding is half-saturated.

For the data set, the target named is HER2 extracellular domain (UniProt P04626 23-652). Nature of the data set: SPRi; 5 mM Mg2+; negative aptamer spots subtracted; Selection buffer: 10 mM HEPES, 120 mM NaCl, 5 mM MgCl2, 5 mM KCl; pH not stated; SPRi temperature not stated (50 uL/min, 50 or 100 nM HER2, BSA-blocked chip); cell assays at 37 C. The note with it: protein: commercial.

The molecule ATTAAGAACCATCACTCTTCCAAATGGATATACGACTGGG (ssDNA, 5' hexyl-disulfide) [HeA2_1] had a dissociation constant (Kd) of 28.9 nM.

TCTAAAAGGATTCTTCCCAAGGGGATCCAATTCAAACAGC (ssDNA, 5' hexyl-disulfide) [HeA2_3] displayed a Kd of 6.2 nM. Compared with the last molecule, the Kd is about 4.7-fold lower.

Values taken from publication PMC4932547, “Improved Aptamers for the Diagnosis and Potential Treatment of HER2-Positive Cancer”.
